Measurements as given in publication PMC3137622, “Mechanisms of Allergen-Antibody Interaction of Cockroach Allergen Bla g 2 with Monoclonal Antibodies That Inhibit IgE Antibody Binding” (PLoS ONE, 2011).

Biological target: T1, natural Bla g 2 (Blattella germanica, UniProt P54958)
T1 construct: Glycosylated natural allergen; also called nBla g 2; natural allergen
Assay: ELISA; two-site dose-response: mAb 7C11 or 4C3 as capture antibody, allergen titrated, detection with biotinylated mAb 4C3 (21 nM) or 7C11 (4 nM), respectively, or polyclonal antibody (53 nM)
Settings: both partners purified

T1 sequence (P54958 whole entry, looked up): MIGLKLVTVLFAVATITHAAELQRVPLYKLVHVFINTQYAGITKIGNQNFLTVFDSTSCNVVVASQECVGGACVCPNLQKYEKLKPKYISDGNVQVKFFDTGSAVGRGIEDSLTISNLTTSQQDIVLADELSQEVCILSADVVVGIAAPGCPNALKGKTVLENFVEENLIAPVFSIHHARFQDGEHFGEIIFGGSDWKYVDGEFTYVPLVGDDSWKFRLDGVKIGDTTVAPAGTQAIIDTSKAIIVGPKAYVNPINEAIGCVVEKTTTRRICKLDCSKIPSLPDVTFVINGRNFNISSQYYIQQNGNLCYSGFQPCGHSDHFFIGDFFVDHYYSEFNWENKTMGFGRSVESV

| binding result | Binder |
| --- | --- |
| binds | monoclonal antibody 7C11 (anti-Bla g 2) (antibody, V domains shown, the Fab' of mAb 7C11 stands in PDB 2nr6 (complex with Bla g 2), heavy chain; the Fab' of mAb 7C11 stands in PDB 2nr6 (complex with Bla g 2), light chain; Whole mAb in the assays; the PDB entry holds only the Fab' fragment; also called mAb 7C11; biotinylated mAb 7C11) VH: EIQLQQSGAELVKPGASVKLSCTASGFNIKDTYIHWVKQRPEQGLEWIGRIDPANGNTRYGPKFLGKATITADTSSNTAYLHLNSLTSEDTAVYFCARWVRQMDYWGQGTSVTVSS VL: DIVMTQSHKFMSTSVGDRVSITCKASQIVSTAVAWYQQKPGQSPKLLIYSASYRYTGVPDRFTGSGSGTDFTFTISSVQAEDLAVYYCQQHYNSPQTFGGGTKLEIK |
| binds | monoclonal antibody 4C3 (anti-Bla g 2) (antibody, V domains shown, the Fab of mAb 4C3 stands in PDB 3liz (complex with Bla g 2), heavy chain; the Fab of mAb 4C3 stands in PDB 3liz (complex with Bla g 2), light chain; Whole mAb in the assays; the PDB entry holds only the Fab fragment; also called mAb 4C3; biotinylated mAb 4C3) VH: EVQLVESGGGLVQPGGSLKLSCAASGFTFSSFAMSWGRQTPDKRLELVATINSNGASTYYPDTVKGRFTISRDNAKNTLFLQMSSLKSEDTAMYYCTRDPAGRAWFAYWGQGTLVTVSA VL: QIVLTQSPSSMYASLGERVTITCKASQDINNYLSWFQQKPGKSPKTLIYRADRLVDGVPSRVSGSGSGQDYSLTISSLEYEDLGIYYCLQYDELPYTFGGGTKLEIK |
